Laboratory results from US11548942B2, “Methods of treating a wasting syndrome, increasing growth hormone levels, and increasing GHSR activity with a LEAP2 antibody” (NGM Biopharmaceuticals, Inc., priority 2017, dated 2023).

Columns and labels:
food intake = assay: Food intake in mice; type: in vivo
Protocol: Mice were housed in individual cages and food intake was measured at 0.5, 1, and 2 hours.
Mice were subcutaneously injected with 0.15 μmol/kg or 3 μmol/kg LEAP2.

endogenous LEAP2 = biological target: T1, endogenous LEAP2 (Mus musculus, UniProt Q91V13); assay: Growth hormone release after fasting and anti-LEAP2 antibody treatment; type: in vivo, mice; conditions: 10 mg/kg i.p. after 24 hour fasting
T1 construct: The mature form of LEAP2 found in circulation is a 40 amino acid cationic bicyclic peptide; from tissue; host or cells: live fasted mice; circulating endogenous LEAP2
T1 sequence (Q91V13 37-76): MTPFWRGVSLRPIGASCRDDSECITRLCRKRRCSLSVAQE
Protocol: FIG. 10C illustrates the experimental design for evaluating the impact of anti-LEAP2 antibodies on growth hormone release. Following a 24 hour fasting period, a baseline blood sample was taken, and anti-LEAP2 antibodies (10 mg/kg) were administered by intraperitoneal injection. Growth hormone levels were determined at 5, 10, 30, 60, 90, and 120 minutes post-injection.

[1] = Growth hormone infusion during chronic calorie restriction in LEAP2-expressing mice; type: in vivo; conditions: growth hormone pumps 0.5 μg/hr s.c.
Protocol: As described above, two weeks before initiation of calorie restriction, 2-3 month-old male mice were administered AAV-LEAP2 or AAV-GFP by tail vein injection. Diet treatment groups and measurements were the same as above. For growth hormone infusion, Alzet® osmotic mini-pumps filled with recombinant rat growth hormone (GroPep Bioreagents) or vehicle were implanted subcutaneously in the interscapular region. Growth hormone concentration in the pumps was 2 mg/ml and the growth hormone was delivered at a rate of 0.25 μl/hr (0.5 μg/hr).
FIG. 8A illustrates the experimental design for growth hormone infusion during chronic calorie restriction. The delivery efficiency of growth hormone was confirmed in a separate group of naïve mice kept in ad libitum conditions over 2 weeks. […] Osmotic pumps were implanted 3 days before initiation of calorie restriction. […] In LEAP2-expressing mice implanted with growth hormone pumps, 60% were able to maintain stable levels of blood glucose and survived to the end of the experiment. […] FIG. 8C presents a Kaplan-Meier survival curve of the mice from this experiment.

CCCCCCCC(=O)OC[C@H](NC(=O)[C@H](CO)NC(=O)CN)C(=O)N[C@@H](Cc1ccccc1)C(=O)N[C@@H](CC(C)C)C(=O)N[C@@H](CO)C(=O)N1CCC[C@H]1C(=O)N[C@@H](CCC(=O)O)C(=O)N[C@@H](Cc1c[nH]cn1)C(=O)N[C@@H](CCC(N)=O)C(=O)N[C@@H](CCCNC(=N)N)C(=O)N[C@H](C(=O)N[C@@H](CCC(N)=O)C(=O)N[C@@H](CCC(N)=O)C(=O)N[C@@H](CCCNC(=N)N)C(=O)N[C@@H](CCCCN)C(=O)N[C@@H](CCC(=O)O)C(=O)N[C@@H](CO)C(=O)N[C@@H](CCCCN)C(=O)N[C@@H](CCCCN)C(=O)N1CCC[C@H]1C(=O)N1CCC[C@H]1C(=O)N[C@@H](C)C(=O)N[C@@H](CCCCN)C(=O)N[C@@H](CC(C)C)C(=O)N[C@@H](CCC(N)=O)C(=O)N1CCC[C@H]1C(=O)N[C@@H](CCCNC(=N)N)C(=O)O)C(C)C [ghrelin]
food intake (food intake; ghrelin 0.03 μmol/kg s.c.): only slightly increased
food intake (food intake; ghrelin 0.15 μmol/kg s.c., 1 and 2 hour time points): significantly promote food intake

B1: M18: mouse hybridoma anti-LEAP2 monoclonal antibody, VH SEQ ID NO:9, VL SEQ ID NO:10 (antibody, V domains shown)
VH: EIQLQQSGPELMKPGASVKISCKASGYSFTNYYIHWVKQSHGKSLEWIGYIDPFNGGTNYNQKFKGKATLTVDKSSSTAYMHLSSLTFEDSAVYYCARRGYYYGFTYWGQGTLVTVSA
VL: DIVLTQSPASLAVSLGQRATISCKASQSVDYDGDSYMNWYQQKPGQPPKLLIYTASNLESGIPARFSGSGSGTDFTLNIHPVEEEDAATYYCQQSNEDPYTFGGGTKLEIK
total amount of growth hormone released (AUC) (endogenous LEAP2): increased the total amount of growth hormone released
peak of growth hormone secretion (endogenous LEAP2; versus control antibody): increased the peak of growth hormone secretion

B2: growth hormone: recombinant rat growth hormone (GroPep Bioreagents) delivered by Alzet osmotic mini-pumps (protein, UniProt P01244 27-216, looked up)
Somatotropin: FPAMPLSSLFANAVLRAQHLHQLAADTYKEFERAYIPEGQRYSIQNAQAAFCFSETIPAPTGKEEAQQRTDMELLRFSLLLIQSWLGPVQFLSRIFTNSLMFGTSDRVYEKLKDLEEGIQALMQELEDGSPRIGQILKQTYDKFDANMRSDDALLKNYGLLSCFKKDLHKAETYLRVMKCRRFAESSCAF
LEAP2-expressing mice able to maintain stable blood glucose and surviving to the end of the experiment [1]: 60%
